This passage reports binding results from PMC6528599.

This series has as its target T1, GlaR (YugA) (Lactococcus lactis IL1403) (UniProt Q7DAT6).
T1 sequence: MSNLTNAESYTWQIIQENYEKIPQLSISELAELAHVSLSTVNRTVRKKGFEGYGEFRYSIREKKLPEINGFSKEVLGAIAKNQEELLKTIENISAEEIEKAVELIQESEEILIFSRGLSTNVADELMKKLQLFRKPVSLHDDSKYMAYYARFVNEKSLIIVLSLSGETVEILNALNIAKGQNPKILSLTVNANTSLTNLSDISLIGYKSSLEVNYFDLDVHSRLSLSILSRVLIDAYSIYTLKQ
The series is described as follows: EMSA. Conditions: EMSA: 1 nM DNA, 10 mM Tris-HCl pH 8.5, 10 mM MgCl2, 100 mM KCl, 0.1 mg/ml BSA (printed as 10x binding buffer), 250 mM galactose, 20 ul, 20 min at 37 C; 5% PAGE ….

As to “CCATTACATTTTCATGACGATTACATACAAAAAAAGCTCAAAAATTTGAGCTTTTTTTTTCGAATTTTAGATAATTAACTAGTAACCTTTTGGATGACTTTGGTGCCATTTCCAAGCGTTCGTAATAATGTGCTCTAAATCATTTTGTGCTTTCCAACCCAAAATTTCACCAGCTTTTGTTGAATCAGCAACCAGCTCATCTGGGTCTCCTGCACGGCGTTCACCCATTTGGCTTGGAATTTCTTTACCTGTTACTTTTCGTGCGGTTTCAAGCACTTCAAG (double strand)”, the binding entry is recorded as “no binding”. Then “GGACATTGGCATCTACTTGAAGAAGAAGCAGGAACATGGTTAAATATTGACGGATTCCATATGGGTGTAGGTGGAGATGATTCATGGAGTCCAAGTGTCGCTCAGGAATATTTATTGACAAAGGGAAATTATCATTATGAAGTTAGTTTTAAATTAACGTGATGATCCAAATTTTCAAGAATTTGATATAATATAGAGAAAATGGAGGTTCTTATGACGGTTTTAGTTCTTGGTGGAGCAGGATACGTGGGAAGTCACGCGGTAGATATGCTTCTTAAACGTGGTTACGATGTGGCAG (double strand) [galE upstream region]”, with “no binding”.
